Measurements taken from patent US20250382726A1.

Columns and labels:
[1] = target: recombinant HER2 (Acro Biosystems; P/N. H5225) (UniProt P04626); test: BLI (Octet), IgG captured on anti-human Fc biosensors, HER2 5-0.078 nM in solution, 37 C, 1:1 global fit, mean of duplicates
[2] = target: recombinant Cathepsin S protein (UniProt P25774); test: BLI (Octet), captured IgG, Cathepsin S 200 ng/ml, 25 C; Run 1; Affinity to be determined
[3] = target: recombinant Cathepsin S protein (UniProt P25774); test: BLI (Octet), captured IgG, Cathepsin S 200 ng/ml, 25 C; Run 2, second Fsn0503h control row
[4] = target: recombinant Cathepsin S protein (UniProt P25774); test: BLI (Octet), captured IgG, Cathepsin S 200 ng/ml, 25 C; Run 1, first Fsn0503h control row
[5] = target: recombinant Cathepsin S protein (UniProt P25774); test: BLI (Octet), IgG captured on anti-human biosensors, 200 ng/ml recombinant Cathepsin S, 25 C
[6] = target: recombinant Cathepsin S protein (UniProt P25774); test: BLI (Octet), captured IgG, Cathepsin S 200 ng/ml, 25 C; Run 1, Fsn0503h control
[7] = target: recombinant Cathepsin S protein (UniProt P25774); test: BLI (Octet), captured IgG, Cathepsin S 200 ng/ml, 25 C; Run 2, Fsn0503h control

Molecule: Wild-Type (antibody having sequence of trastuzumab, transiently expressed in parallel with the variants)
- Kd [1]: 0.126 nM

Molecule: WT (antibody)
- Kd [2]: < 0.001 nM
- koff [2]: < 1e-07 s⁻¹
- kon [2]: 45100 M⁻¹ s⁻¹

B1: Fsn0503h, humanised anti-Cathepsin S antibody (Fusion Antibodies) (antibody, V domains shown)
VH: EVQLVESGGGLVKPGGSLRLSCAASGFAFSSYDMSWVRQAPGKGLEWVAYITTGGVNTYYPDTVKGRFTISRDNAKNTLYLQMSSLKSEDTAVYYCARHSYFDYWGQGTTVTVSS
VL: DVVMTQSPLSLPVTLGQPASISCRSSQSLVHSNGNTYLHWYLQKPGQSPQLLIYKVSNRFSGVPDRFSGSGSGTDFTLKISRVEAEDVGVYYCSQTTHVPPTFGQGTKLEIK
- Kd [3]: 5.11 nM
- koff [3]: 0.000242 s⁻¹
- Kd [4]: 3.05 nM
- koff [4]: 0.000121 s⁻¹
- kon [4]: 39600 M⁻¹ s⁻¹
- Kd [5]: 4.45 nM
- Kd [6]: 5.47 nM
- koff [6]: 0.000144 s⁻¹
- kon [6]: 26200 M⁻¹ s⁻¹
- Kd [7]: 4.39 nM
- koff [7]: 0.000188 s⁻¹
- kon [7]: 42800 M⁻¹ s⁻¹
